From the domain aggregation screens of Martell et al. (2025)

Assay: soluble fraction after stress (log2 fold change); higher = more stays soluble; pooled small domains, quantitative proteomics
Conditions: stress: 50 degC
Outline: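 Quantitative proteomics served as the high-throughput read-out for pooled custom libraries of small protein domains. Each was stressed at 50°C. Aggregation propensity is expressed as the base-two log fold change in soluble protein after stress. A higher value means a larger share of the protein remains in solution.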

| Sequence | soluble fraction (log2) |
| --- | --- |
| HMKTLDAFFDQARDAYKKLKKDGDIDNLKVLRNQLQTVRETQGDAVRKKSKEEYRRLVDIIDDIDGLLAAF | -0.102 |
| HMKTLSKEDIGFLSDEAVGEMRKAVANGEMLELRALIDQVGEKNPIVAEKLLTLVKQYDYENLNRVLE | 0.0931 |
| HMKTPAPRETILSLFRQTPDGFVSGERISDELGVSRTAVWKHIRNLRQAGYQIEAIPSRGYQLQQS | -0.359 |
| HMKTQFGTIVKQLRERKGMDQKQLGEIVGVSDKTVSSWEINRTEPKMGIVQQLADYFGVSTDYLIKG | 0.295 |
| HMKTRQVTVRNGRIEIFDKRFSTERLVFTAANLPVLEREGEVFTAGIPDSRDFINLWARDGSFAGSVPRV | -1.06 |
| HMKTTSYAKLLRFLRTERDLSQITVAKQLGLSRASYLALEHGSRELSLSEAVKVTTLYGIRIDDLIVNH | -3.48 |
| HMKTTVEVSPIARPGAVASGSVKFGSGVTAEWMLDQYGRLGLDKPTGKPTEQDIKEFQIELQKAL | 0.165 |
| HMKVDLSEEEKTILELLKKESPQELETIKAASTLSNKKWDKAIKGLRKHNLAKVNKTDDGLFVELE | 0.257 |
| HMKVDRLISIVLVLLDKNRISAQELADMFEVSLRTIYRDIDAIELAGIPIRSTSGVGGGFEIMPNY | -0.577 |
| HMKVKGVYQLDNGYWGYRFTMLVNGKTVSQRRVKDESGNPFKTEKKAEKARLVAMAEEQTKANK | -2.11 |
| HMKVMTNAELGRIIKEARIARRMTQSEVVGDFITRNMLSQIENGNAAPSMRTLQYLMDVLDIHINIE | -2.58 |
| HMKVNIGDQVYNQMKDQIMSGVWVPGEKIPSENQLMEVFGVSRGTVRQAIQKLSAVGLLETRRGEGSYVGQ | -0.115 |
| HMKVQLGMNTREVRGIMGKPFSEDTFVEGEKRVDVLHYKEAVRVKTQGFILTTSLRFENDSLTAI | -1.74 |
| HMKVRVFIERSNDGYSAYMPDDNNLPFGLTGDGKTAQEAMQDFLLARDEMKEFFIEEGKEFPEVEFDFS | -1.35 |
| HMKVSAEEQNILDALQAAGGYLPFHDKSNPEEIYEAFGISKKTFKMIIGSLYKQQKINLTQTGIQLII | -0.0574 |
| HMKVSDPEAIKLIEQAQVKVIPFLDISEAADIQIALEELKNSEGTGQTDSAKVRLRNLLSPFSYL | 0.269 |
| HMKVSFEIEINGVTKSINSINEAKEAISELQDIMDNSTFGSEEFKNAATQIDKLQNKLVEALDK | -0.0374 |
| HMKVSVDLSMFEDDQTADRNAAVAWVVDELGAGGVDRTILMQLQSTGWSAEQSRAILDLASAGR | -0.208 |
| HMKVTGSVQKKKGYYYIVVRLPTKNGTQYEQKQKWFNTKLKATPRNKTAAQVILAEKLTEYGGIV | -2.8 |
| HMKVWYAGINAQRVGPMTLGAMEQQIRYGRVLFSTLIWKSPMPQWVPAGDVPELRRLLDEHMLNQMP | -0.381 |
| HMKYFDRDLINYIQKTLAGKKIDFHEKIVPLIIELAGSDIRRVDEIIDMAEYSGKGMHVSEEMIRELAGDV | -0.815 |
| HMKYKTKRDMILALMKKEILSGELKPRTRLLISEVASRYEVSEIPVREAFQVLIQEDLVRSTGAGFEVT | -0.744 |
| HMKYPVYLQLADLIERKINKNEYPLGSKIPSERELIDAFGISRMTVRKAIEVLIEKGLLTRQHGKGTYVSQ | -1.29 |

| Sequence | soluble fraction (log2) |
| --- | --- |
| HMKYSNDFDKVSYSLGLSIASNLISSGVKTLNAEAFNDGLATVFEGRMPEINPDEANKILQNFFEGLQKE | 0.0191 |
| HMKYSQAMIAQIIKHFHLPNNTVVTGEDVDAILLRSVDGGDGIYGGDVVSIWKYYKKQNDIQEIVT | -0.645 |
| HMLAEEDRRRAERPGLDGNAVMVHLGIGPGRHVGEALAFLLEVRRSEGDLAVAELKSRIDAWWADR | -2.59 |
| HMLAERKERDKAELKELILDAAKKILLKNGQEGLSIRKIATTVEYSPATIYLYFKDKDEILHELMEMG | 0.317 |
| HMLAHSEFGARLRETRKRLGLSQSELGGDRYSGSYISHLESGRRAASAEVIEFLAGRLGVEVEELGM | -0.171 |
| HMLAIELDDKPGSLLRALEIFAKRNLNIEYMYAFTEKRGDKAVMIFKFSDIETAKKSLLEEGFN | -1.64 |
| HMLAKNDSGLNNHTFNAIRDALLEALADGPAEAKKLTENISFPSDKIITVIRFLADHDDRFSLEDGILSLT | -0.515 |
| HMLAKYEIIKQDIIQMIEEKKFKPGDKIYSEGELKKIYNVSSTTVVRALQDLVLSGYLIRKQGEGTYVRK | -1.23 |
| HMLASDYEEELSVLIKMSHKIAAGDDSLMDDFNDRVTMFESSYPINKATKDLTPVLERVNKFQT | -0.346 |
| HMLDDDAGMIQAILRKAPGHYLPLHDKSDPASIQAQLGISKAQFKRAVGTLMKQGLIRQVKGDGLYLTQ | 0.0324 |
| HMLDDESLHFFYKKDGWEYWMKTTTENNYPIQLRKKIGDEKVQEYWNGDKEKKKIGASYFGV | -0.391 |
| HMLDFLVSKYESELLADLLWSLGVVAVEEREATGDLVTLRTSLGDDHSFTRELVQEKFPDVIVSTAL | -1.47 |
| HMLDIVVGSTGYALGEITDHSGTVRVNGDTWTARLVDAAGPVEDGDRVEVYAVEGTTLLVYPS | -0.396 |
| HMLDKEDNANAGKTLLERELSRAHLSDVEHRELAQRLHLASEQELYIKIGSGDLSIIQALNRAKEFKDT | -0.0156 |
| HMLDKRSHAKKVLDAIEAVILGRATNDQLAYTINGRSLQKTPLPDLLRLRSQYQAEYQRELRAERIRKG | -0.131 |
| HMLDLPVKTINGKQYYYYTVKKGDTVYSLITRFGITRSDLVESNPAAADVLKTGDTLYFAVDKFG | -0.0825 |
| HMLDLYYDSEDKLLIDMGTGEVIRSFADDKRSLVFDAQAKILFDEDSGDIVYSSYFDKLITDKLASKS | -0.0393 |
| HMLDPIQEGKKMLNSRLSGFGITPNTRLMNKLLAAYNISSREEFYGRIGAGIEDLSTLREVLLKGT | -0.284 |
| HMLDQSYYETANEIISRYPLEEKSLIPIIQDIQATYRYLPPDLLDYVAKKIGITETKAYSVASFYENFSF | -0.327 |
| HMLDRNKLNELDAYIESFEDKPSHLIMILHRAQGLFGYLPKELQIYVAEKTGVPAAKVYGVVTFYSFFTMK | -1.4 |
| HMLEDDTVNTAEGIKIGDSFAAVTKAYGTDYVAAGNTYAYSKDKMTLTFVMNNDKVSTISYSLLTS | -0.129 |
| HMLEDYFKEEEYTEVLKIPKEYIKGFQYYLIEDAEFVNALRAKNKTMTLFLAKKLASDYIEIIRREQ | -0.208 |
| HMLEIGRYNTLTVLRKVDFGYYLDGLDYGDILMPAKYAATELEAGDEVDVFIYLDSSEKLIATTETPIAQ | -3.38 |

| Sequence | soluble fraction (log2) |
| --- | --- |
| HMLEIQENFQNILKRMELSLSPLERRVLALYLSGYERSEIPEKTGIPLKTFDNALHRVRNKMK | -1.53 |
| HMLEKDIGKAITILRKSYQLSISAFSMRTGYSRVHISEVESGKRKATDELISVIRNVFHLDSNWPF | -1.47 |
| HMLELDRTNLLGVFGSKSNPYALIMLSNGEMLKLSIGDQFLGWRVYAIDQTTVHVQNGKNQEILRIP | -1.13 |
| HMLELLSMEDIQRTRVGDLIATVRQVDRQHALVLDRDPETGKPAVRGIFSLSQISLRLGLNI | -0.557 |
| HMLEPGIAVLKTLMSQYRLGVADLPELGSKSNVSKLLNAVEGKKLTRQHIEALSKRFAVSPALF | -0.195 |
| HMLEPGQKVKSVVVDISGDLIYIDLGGKTEGVVELKEFYDEAGEYHVKPGDEIEVFFVSVQNGLKRFTT | -0.0167 |
| HMLEQISDPEVLSKLADEVLSQQEKMVMDYRKGKTAAFQGLMGQMMKKTKGKGNPAKIQEILAQKL | 0.193 |
| HMLEQLTPRELKVLQALAQGRQNKEIAAQLVISERTVKFHVSAILSKLNVGNRTEAVTVAAQRGLISL | -1.03 |
| HMLEQSYYEKTDEIIELHGAKASSLIPVMQDVQAEYRYLPGELLSYIADKLGIPLAKAYSVATFYENFS | -0.358 |
| HMLERKFGTSLEIKSLSKFLIENNYKKNAKYLNKLIQVLGTRSENRIIKTFFKQFPEIENIFRNQL | -0.846 |
| HMLETADDAKRFLGAIISEKKAENLLRVYPDIIERIVAGKPVDLSLVKGIKQKTFDKLRQKVISHYSMY | 0.119 |
| HMLETHRRRQIILSLLRESGMLDVDEVAARLVVSPNTIRNDFNALAAEGLLRRIRGGATLAEP | -0.349 |
| HMLFKNASGTVVSRIQSQVDGQINIRTGSGNAPDYAFVAKPDGAVELYHNGTKQFETGSSGVLLP | -0.274 |
| HMLFQQPATMIGKIGVAMSDLRPSGKIKIDDEWYDGQSEGDYILKGQEIIVVQVMNAYLIVRL | 0.126 |
| HMLFRGNGFNTLYDKQLRITQQGEFKDGRLWDGKYYRYSKAGELVRIEIYEQGRYAGNGVITDEDKA | -0.845 |
| HMLFSDSDLKSLLDKDISYVIEMYKAASKEQKRIISDMVAQKVMEKKYIDANILIQLGELTGINYMDL | -0.472 |
| HMLFSEKLKQAMQDLHLNQIQVVGLTGKSKGSISQYISGKQVPSEATQRDIAISLGLEENYFSKK | 0.282 |
| HMLFYSDLVRLISFAEATLGKNEFETWYMSHHQGMKYTEIAIALGISVRTVEDRIARTKNHFRKI | -0.494 |
| HMLGAGFDSDLTARENIFLNGALLGHSRAVMRGYYDDIVNFAELHDFMDVPVKNFSSGMTSRLAFSIATIG | 0.00802 |
| HMLGARIAALRRQAGMNQGELAKKLGISPSTVGMYEQGRREPSAEMLVRLAEAFSVSTDFLLT | -4.95e-05 |
| HMLGERIRRLRKEMGMSVTELARRVKTSPSYISEIEKGEKTPSLNLLVRIASELRTGIDYLTGL | -0.294 |
| HMLGIGANVQKIAQERKISLKELSRRAGIPYTTIYNMVKRDSSRVSPENLQKLADALGVEIGKLYG | 0.0652 |
| HMLGSQQAYTDALRLTGLPVDIEVIESDRLPFLIPMRYSLDQHLIEVNVRYPDTRAIRVQQMVEELFHA | -0.624 |
